Among the data in patent publication US20050282743A1, “Molecular interactions in cells” (Arbor Vita Corporation, priority 2001, published 2005) are Classification and Kd values, retold here.

Assay [1] addresses T1, GST-AIPC PDZ domain 1 (Homo sapiens (Human)), O15018.
T1 chain: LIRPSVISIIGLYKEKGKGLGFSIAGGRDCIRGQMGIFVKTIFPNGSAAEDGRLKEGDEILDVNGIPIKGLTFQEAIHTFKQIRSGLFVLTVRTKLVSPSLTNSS
In words: G' assay. Note: key of the grades not given here.

For assay [2], the target named is T2, GST-APXL-1 PDZ domain 1 (Homo sapiens (Human)), Q13796.
T2 chain: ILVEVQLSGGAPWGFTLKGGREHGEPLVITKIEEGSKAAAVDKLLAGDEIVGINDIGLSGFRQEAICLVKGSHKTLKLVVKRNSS
Briefly: G' assay. Note: key of the grades not given here.

Assay [3] concerns the target GST-BAI-1 Associated Protein PDZ domain 6 (Homo sapiens (Human)), Q96QZ7. In words: G' assay. Note: key of the grades not given here.
The target of assay [4] is T3, GST-ENIGMA PDZ domain 1 (Homo sapiens (Human)), Q9NR12.
T3 chain: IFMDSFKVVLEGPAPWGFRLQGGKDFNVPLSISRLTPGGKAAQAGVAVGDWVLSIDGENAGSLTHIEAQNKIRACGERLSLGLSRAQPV
In words: G' assay. Note: key of the grades not given here.

Assay [5] concerns the target T4, GST-KIAA0382 PDZ domain 1 (Canis lupus familiaris (Dog) (Canis familiaris)), A0A8I3.
T4 chain: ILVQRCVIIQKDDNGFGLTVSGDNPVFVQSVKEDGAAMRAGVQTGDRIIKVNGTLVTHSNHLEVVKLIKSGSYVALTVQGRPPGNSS
In words: G' assay. Note: key of the grades not given here.

Assay [6] deals with T5, GST-KIAA0807(S) PDZ domain 1 (Homo sapiens (Human)), Q6P0Q8.
T5 chain: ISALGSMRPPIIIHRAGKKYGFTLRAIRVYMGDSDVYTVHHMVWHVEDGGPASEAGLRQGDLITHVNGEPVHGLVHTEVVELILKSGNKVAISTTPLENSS
In words: G' assay. Note: key of the grades not given here.

Assay [7] concerns the target T6, GST-KIAA0973 PDZ domain 1 (Homo sapiens (Human)), Q9Y2H9.
T6 chain: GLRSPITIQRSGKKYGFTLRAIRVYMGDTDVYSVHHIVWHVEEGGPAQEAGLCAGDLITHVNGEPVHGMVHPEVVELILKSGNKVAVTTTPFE
Briefly: G' assay. Note: key of the grades not given here.

Assay [8] deals with T7, GST-KIAA1526 PDZ domain 1 (Homo sapiens (Human)), Q9P202.
T7 chain: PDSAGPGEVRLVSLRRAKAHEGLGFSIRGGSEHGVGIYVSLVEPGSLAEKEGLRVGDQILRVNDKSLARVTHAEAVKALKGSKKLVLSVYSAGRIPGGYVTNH
Briefly: G' assay.

The target in assay [9] is GST-KIAA1634 PDZ domain 5 (Homo sapiens (Human)), Q5TCQ9. Briefly: G' assay. Note: key of the grades not given here.
Sequence of GST-KIAA1634 PDZ domain 5 (Homo sapiens (Human)), Q5TCQ9 (Q5TCQ9 other isoform, or with tags, fused parts or gaps): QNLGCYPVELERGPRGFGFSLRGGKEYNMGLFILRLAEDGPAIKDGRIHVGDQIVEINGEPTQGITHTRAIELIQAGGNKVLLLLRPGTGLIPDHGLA
In assay [10] the target is GST-KIAA807 [GST: P08515]. In words: G' assay.
Sequence of GST-KIAA807 [GST: P08515] (P08515 whole entry, the tested form may be a part): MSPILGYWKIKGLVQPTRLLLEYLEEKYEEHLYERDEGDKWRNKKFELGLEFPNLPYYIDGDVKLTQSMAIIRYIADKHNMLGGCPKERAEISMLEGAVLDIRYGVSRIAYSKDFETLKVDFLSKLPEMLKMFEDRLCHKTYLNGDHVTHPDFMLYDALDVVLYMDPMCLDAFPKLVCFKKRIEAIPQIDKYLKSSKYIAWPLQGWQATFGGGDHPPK
Assay [11] concerns the target T8, GST-LIM Mystique PDZ domain 1 (Homo sapiens (Human)), Q96JY6.
T8 chain: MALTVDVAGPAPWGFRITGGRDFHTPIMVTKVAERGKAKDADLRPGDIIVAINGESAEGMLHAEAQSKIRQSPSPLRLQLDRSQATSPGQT
In words: G' assay.

Assay [12] concerns the target T9, GST-LIM-RIL PDZ domain 1 (Homo sapiens (Human)), P50479.
T9 chain: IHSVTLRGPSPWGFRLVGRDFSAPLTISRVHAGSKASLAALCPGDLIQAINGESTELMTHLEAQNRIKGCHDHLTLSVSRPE
In words: G' assay.

In assay [13] the target is T10, GST-MINT1 PDZ domain 2 (Mus musculus (Mouse)), B2RUJ5.
T10 chain: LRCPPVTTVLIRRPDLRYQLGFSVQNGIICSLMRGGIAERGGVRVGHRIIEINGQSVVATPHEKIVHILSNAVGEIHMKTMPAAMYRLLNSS
In words: G' assay.

In assay [14] the target is T11, GST-MUPP1 PDZ domain 13 (Homo sapiens (Human)), O75970.
T11 chain: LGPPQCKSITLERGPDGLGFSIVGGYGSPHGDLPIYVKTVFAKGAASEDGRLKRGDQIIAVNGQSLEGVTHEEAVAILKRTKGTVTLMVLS
Briefly: G' assay.

The target of assay [15] is T12, GST-MUPP1 PDZ domain 7 (Homo sapiens (Human)), O75970.
T12 chain: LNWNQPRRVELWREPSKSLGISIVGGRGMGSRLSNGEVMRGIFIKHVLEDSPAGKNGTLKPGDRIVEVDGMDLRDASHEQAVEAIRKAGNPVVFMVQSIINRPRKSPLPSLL
In words: G' assay.

The target of assay [16] is T13, GST-MUPP1 PDZ domain 9 (Homo sapiens (Human)), O75970.
T13 chain: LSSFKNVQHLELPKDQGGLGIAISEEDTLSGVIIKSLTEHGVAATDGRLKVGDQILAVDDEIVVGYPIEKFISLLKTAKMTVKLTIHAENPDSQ
Briefly: G' assay.

The target of assay [17] is GST-PAR3 PDZ domain 3 (Homo sapiens (Human)), Q8TEW0. Briefly: G' assay. Note: key of the grades not given here.
Sequence of GST-PAR3 PDZ domain 3 (Homo sapiens (Human)), Q8TEW0 (Q8TEW0 579-681): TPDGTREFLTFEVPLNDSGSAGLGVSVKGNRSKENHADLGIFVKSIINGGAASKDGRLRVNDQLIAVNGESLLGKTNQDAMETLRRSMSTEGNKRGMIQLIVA
For assay [18], the target named is T14, GST-PTPL1 PDZ domain 2 (Homo sapiens (Human)), Q12923.
T14 chain: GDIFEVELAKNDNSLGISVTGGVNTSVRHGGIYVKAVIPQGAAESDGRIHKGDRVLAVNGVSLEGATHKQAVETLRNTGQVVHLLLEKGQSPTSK
In words: G' assay.

The target in assay [19] is T15, GST-Shank 1 PDZ domain 1 (Homo sapiens (Human)), Q9UPX8.
T15 chain: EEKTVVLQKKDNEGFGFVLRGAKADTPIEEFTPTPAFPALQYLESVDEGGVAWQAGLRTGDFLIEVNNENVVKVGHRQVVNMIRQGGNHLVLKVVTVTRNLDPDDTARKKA
In words: G' assay.

In assay [20] the target is T16, GST-novel PDZ gene PDZ domain 1 (Homo sapiens (Human)), Q9H5P4.
T16 chain: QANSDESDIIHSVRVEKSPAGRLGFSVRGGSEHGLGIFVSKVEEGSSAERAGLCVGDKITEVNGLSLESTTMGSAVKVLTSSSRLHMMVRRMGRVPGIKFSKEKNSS
In words: G' assay.

The target of assay [21] is GST-Atrophin-1 Interacting Protein PDZ domain 5 (Rattus norvegicus (Rat)), O88382. Briefly: G' assay. Note: key of the grades not given here.
Sequence of GST-Atrophin-1 Interacting Protein PDZ domain 5 (Rattus norvegicus (Rat)), O88382 (O88382 1128-1225): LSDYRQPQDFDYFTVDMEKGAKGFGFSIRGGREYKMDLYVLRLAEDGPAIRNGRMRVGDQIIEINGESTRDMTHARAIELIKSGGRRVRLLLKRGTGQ
Assay [22] concerns the target GST-KIAA0147 PDZ domain 1 (Homo sapiens (Human)), Q14160. In words: G' assay. Note: key of the grades not given here.
For assay [23], the target named is T17, GST-PTN-4 PDZ domain 1 (Homo sapiens (Human)), P29074.
T17 chain: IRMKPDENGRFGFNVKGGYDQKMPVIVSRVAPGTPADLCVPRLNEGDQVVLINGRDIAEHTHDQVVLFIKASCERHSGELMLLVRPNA
Briefly: G' assay.

In assay [24] the target is T18, GST-ZO-1 PDZ domain 2 (Rattus norvegicus (Rat)), A0A0G2.
T18 chain: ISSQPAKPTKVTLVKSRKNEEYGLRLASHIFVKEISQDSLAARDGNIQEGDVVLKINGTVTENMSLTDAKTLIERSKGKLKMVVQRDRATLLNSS
Briefly: G' assay.

Assay [25] deals with T19, GST-ZO-2 PDZ domain 2 (Homo sapiens (Human)), Q9UDY2.
T19 chain: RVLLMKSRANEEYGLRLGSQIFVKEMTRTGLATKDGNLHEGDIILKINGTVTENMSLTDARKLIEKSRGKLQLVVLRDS
In words: G' assay.

Assay [26] concerns the target T20, GST-ZO-1 PDZ domain 1 (Rattus norvegicus (Rat)), A0A0G2.
T20 chain: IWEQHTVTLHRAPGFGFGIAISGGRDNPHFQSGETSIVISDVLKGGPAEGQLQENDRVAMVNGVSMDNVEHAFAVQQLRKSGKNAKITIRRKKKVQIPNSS
Briefly: G' assay.

For assay [27], the target named is T21, GST-Outer Membrane PDZ domain 1 (Homo sapiens (Human)), P57105.
T21 chain: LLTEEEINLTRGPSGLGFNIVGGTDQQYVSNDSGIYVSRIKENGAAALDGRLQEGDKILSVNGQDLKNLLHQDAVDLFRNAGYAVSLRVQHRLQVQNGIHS
In words: G' assay.

Assay [28] deals with T5, GST-KIAA0807(S) PDZ domain 1 (Homo …). In words: G assay titration, PDZ 0.5 ug/ml.
Assay [29] concerns the target T22, GST-FLJ00011 PDZ domain 1 (Homo sapiens (Human)), Q9H5P4.
T22 chain: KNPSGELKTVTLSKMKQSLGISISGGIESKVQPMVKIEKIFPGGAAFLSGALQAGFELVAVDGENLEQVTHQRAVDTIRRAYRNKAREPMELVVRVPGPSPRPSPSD
Briefly: G' assay.

Assay [30] deals with GST-KIAA0316 PDZ domain 1 (Homo sapiens (Human)), Q14CM0. Briefly: G' assay. Note: key of the grades not given here. The following applies: remark: other sources report otherwise.
Sequence of GST-KIAA0316 PDZ domain 1 (Homo sapiens (Human)), Q14CM0 (Q14CM0 72-159): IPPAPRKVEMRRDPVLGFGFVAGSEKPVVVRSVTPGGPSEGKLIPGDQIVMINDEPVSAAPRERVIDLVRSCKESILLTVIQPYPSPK
Assay [31] addresses T23, GST-PDZK1 PDZ domains 2, 3, 4, Q5T2W1.
T23 chain: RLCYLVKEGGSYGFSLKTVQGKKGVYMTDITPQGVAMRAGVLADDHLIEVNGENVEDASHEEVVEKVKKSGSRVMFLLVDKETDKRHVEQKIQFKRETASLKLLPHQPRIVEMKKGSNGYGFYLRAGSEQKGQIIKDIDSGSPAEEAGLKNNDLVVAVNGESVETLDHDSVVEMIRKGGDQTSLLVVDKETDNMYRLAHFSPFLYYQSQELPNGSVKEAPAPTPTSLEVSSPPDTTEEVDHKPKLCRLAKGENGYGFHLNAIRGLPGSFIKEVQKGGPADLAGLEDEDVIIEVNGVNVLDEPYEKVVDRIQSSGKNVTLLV
Briefly: G' assay.

For assay [32], the target named is GST-PIST PDZ domain 1 (Mus musculus (Mouse)), Q8BH60. Briefly: G' assay. Note: key of the grades not given here.
The target in assay [33] is T24, GST-Shank 3 PDZ domain 1 (human (hypothetical, computer cloned)), Q9BYB0.
T24 chain: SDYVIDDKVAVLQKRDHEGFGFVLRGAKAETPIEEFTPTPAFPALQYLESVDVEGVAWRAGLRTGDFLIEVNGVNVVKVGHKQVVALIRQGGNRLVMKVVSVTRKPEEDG
In words: G' assay.

Sequence of GST-BAI-1 Associated Protein PDZ domain 6 (Homo sapiens (Human)), Q96QZ7 (Q96QZ7 1143-1233): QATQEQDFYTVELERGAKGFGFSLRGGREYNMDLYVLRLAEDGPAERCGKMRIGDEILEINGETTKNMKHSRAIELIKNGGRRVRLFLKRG
Sequence of GST-KIAA0147 PDZ domain 1 (Homo sapiens (Human)), Q14160 (Q14160 other isoform, or with tags, fused parts or gaps): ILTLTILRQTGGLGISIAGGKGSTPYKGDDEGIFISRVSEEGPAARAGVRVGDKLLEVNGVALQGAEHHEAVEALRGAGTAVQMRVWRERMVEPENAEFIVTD

Take VHDAESSDEDGYDWGPATDL (modifications not checked) [zona occludens 3 (ZO-3) PL peptide]: the Classification in [1] came out at 1 A450 class; in assay [2], 2 A450 class; in assay [3] it was 2 A450 class; in [4] it was 1 A450 class; in assay [5], 2 A450 class; in [6], 5 A450 class. The Classification amounted to 2 A450 class in assay [7]; 1 A450 class in assay [8]; 1 A450 class in [9]; 5 A450 class in [10]; 2 A450 class in assay [11]; 2 A450 class in assay [12]. Besides, the Classification was found to be 2 A450 class in [13]; 2 A450 class in assay [14]; 1 A450 class in assay [15]; 1 A450 class in assay [16]; 1 A450 class in [17]; 2 A450 class in assay [18]. In addition, the Classification in assay [19] and in assay [20] was 1 A450 class throughout.

For QATSRNGHSARQHVVADTEL (modifications not checked) [CD34], the Classification is 1 A450 class in [21]; 1 A450 class in [3]; 1 A450 class in [22]; 1 A450 class in [5]; 3 A450 class in [6]; 1 A450 class in assay [9]. Besides, the Classification in assay [10] was 5 A450 class; in [12] it was 1 A450 class; in assay [23], 1 A450 class; in assay [19], 1 A450 class.

As for PSSRASSRASSRPRPDDLEI (modifications not checked) [CX43 (connexin 43)], the Classification in assay [24] stood at 2 A450 class; in assay [25], 1 A450 class.

Turning to TEGNESSEATSPVNAIYSLA (modifications not checked) [neurofascin (chicken)], the Classification in [8], in assay [26], in [24] and in [25] was 1 A450 class in each case.

Consider QPTPTLGLNLGNDPDRGTSI (modifications not checked) [GluR delta-2], for which the Classification in assay [6] amounted to 4 A450 class; in assay [8], 2 A450 class; in assay [10], 3 A450 class; in assay [27], 2 A450 class. The molecule also returned a Kd in [28] of 4000 nM.

Take KENDYESISDLQQGRDITRL (modifications not checked) [PAG]: the Classification in assay [2] turned out to be 2 A450 class; in assay [21] it was 1 A450 class; in assay [29], 3 A450 class; in assay [30], 1 A450 class; in [5] it was 1 A450 class; in assay [6], 5 A450 class. Besides, the Classification in assay [10] is 5 A450 class; in assay [27], 2 A450 class; in [31], 1 A450 class; in assay [32], 1 A450 class; in assay [19], 4 A450 class; in assay [33] it was 2 A450 class. Besides, the Kd in assay [28] came out at 350 nM.
